Test: yeast display, Sf9 membrane polyspecificity reagent, FACS + sequencing; frameworks hold sequencing errors
Procedure, shortened: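 After 36–48 hours of galactose induction, yeast (Saccharomyces cerevisiae BJ5465) displaying a synthetic nanobody library were stained at 4 °C for 1 hour with 10% biotinylated, detergent-solubilized Sf9 membrane reagent. Streptavidin microbeads enriched the stained cells before FACS sorting into low and high (top ~1%) gates on anti-HA and streptavidin fluorescence. Each clone's polyreactivity label reflects its gate of origin.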

Sequence	polyreactivity (PSR sort gate)
QVQLVESGGGLVQAGGSLRLSCAASGSIFGRNVMGWYRQAPGKERELVAAISEGGGRTYYADSVKGRFTISRDNAKNTVYLQMNSLKPEDTAVYYCAAAYFSSGYKYYYWGQGTQVTVSS	high polyreactivity
QVQLVESGGGLVQAGGSLRISCAASGLIIAYAMGWYRPAPGKERELVAASSGRDGSTYYADSVKGRFTISRDNAKNTVYLHMNSLKPEATAVYYCAKRISYLPVEMDYWGQGTQLTVSS	low polyreactivity
QVQLVESGGGLVQAGGSLRLSCAASGRTFRTYTMGWYRQAPGKERELVAAISIGGRTNYADSVKGRFTISRDNAKNTVFLQMNSLKPEDTAVYYCIAARWVPRSYGYWGLGTQVTVSS	high polyreactivity
QVQLVESGGGLVQAGGSLRLSCAASGRTFIRYAMAWYRQAPGKGRELLAANNWSGSTYYADSVKGRFTISRDNAKNTVYVQINSLKPEDTAVYYCAAYPYGVTNAYGSWGQGTQVTVSS	high polyreactivity
QVQLVESGGGLVQAGGSLRLSCAASGITFFPYAMGWYRQAPGKERELVASISDGGGTNYADSVKGRFTISRDNAKNTVYFQMNSLKPEDTAVYYCATDASTYAYYGGDYWGQGTQVTVSS	low polyreactivity
QVQLVESGGGLVQAGASLRLSCAASGRTFGYYAMGWYRQAPGKERELVATISRRGGRTYYADSVKGRFTISRDNAKNTVYLQMNSLKPEDTAVYYCNKYLASYSYSDLVYWGQGTQVTVSS	high polyreactivity
QVQLVESGGGLVQAGGSLRLSCAAYGSIFIYAMGGYRQAPGKVRELVAAISSSGGSTYYADSVKGRFTISRDNAKNTVYLQMNSLKPEDTAVYYCAARYTYSGDKGYYWGQGTQVTVSS	high polyreactivity
QVQLVESGGGLVQAGGSLRLSCAASGITFHRYAMGWYRQAPGKERELVAGINGRGGSTYYADSVKGRFTISRDNAKNTVYLQMNSLKPEDTAVYYCNAVYAGRYFGFDYWGQGTQVTVSS	high polyreactivity
QVQLVESGGGLVQAGGSLRLSCAASGGTFYFNAMGWYRQAPGKERELVATIRYSGGSTYYADSVKGRFTISRDNAKNTVYLQMNSLKPEDTAVYYCNARPRYLSPYRPFKYNYWGQGTQVTVSS	high polyreactivity
QVQLVESGGGLVQAGVSLSLSCAASGITFIIYVMGWYRQAPGKERELVAAISSTGSTYYADSVKGRFTISRDNAKNTVYLQMNSLKPEDTAVYYCAARGRRSSNGFYYWGQGTQVTVSS	high polyreactivity
QDQLVESGGGLVQAGRSLRLSCAASGSIYAFYAMGWYRQAPRKERELVAAISSRGGRTYYADSVKGRFTISRDNAKNTVYLQMNRLKPEETAVYYCAALYWRYLGYPVVRYYYWGQGTQVNVSS	high polyreactivity
QVQLVESGGGLVQAGGSLRLSCAASGRIFAHYAMGWYRQAPGKERELVAAIRRSGVSTYYADSVKGRFTSSRDNAKNTVYLQMNSLKPEDTAVYYCNARAYVSPYDYWGQGTQVTVSS	low polyreactivity
QVQLVESGGGLVQAGGSLRLSCAASGRIFSAYVMGWYRQAPGKERELVAAISSGGSRTSYADSVKGRFTISRDNAKNTVYLQMNSLKPEDTAVYYCAAARFYRSAYGYWGQGTQVTVSS	high polyreactivity
QVQLVESGGGLVQAGGSHRISCAASGNTFVINTMGWYRQAPGKERELVAGISRRGTSTYYADSVKGRFTISRDNAKNTVYLQMNSLKPEDTAVYYCAVYAEIVRYEYWGQGTQVTVSS	high polyreactivity
QVQLVESGGGLVQAGGSLRLSCAASGFTFARYVMGWYRQAPGKERELVAAISWRGTRTFYADSVKGRFTISRDNAKNTVYLQMNSLKPEDTAVYYCAADSRPPKYDYWGQGTQVTVSS	high polyreactivity
QVQLVESGACLVQAGGSLRLSFAASGSIFGWYTMGWYRPAPGKERELVAAISNSGTSSYYADSEKGRFTISRDTAKNTVYLQMNSLKPEDTAVYYCNAYSDLFGSYTDLGEYDYWVQGTQVTVSS	low polyreactivity
QVQLQESGGGLVQAGGSLRLSCAASGYNSFSGYMGRYRQAPGKEREFVDSITPGRSTYYADSVKGRFTISRDNAEITVYLQMNSLKPEDTGVYYCAADDSRTEQHDYWGQGTQVTVSS	high polyreactivity
QVQLVESGGGLVQAGGSLRLSCAASGIIFDSYTMGWYRQAPGKERELVAAISVSGGSTYYADSVKGRFTISRDNAKNTVYLQMNSLKPEDTAVYYCATVPSLPDYDSWGQGTQVTVSS	low polyreactivity
QVQLVESGGGLVQAGGSLRLSCAASGSNFGYNALGWYRQAPGKDRELVAAITGSGGSTYYADSVKGRFTISRDNAKNTVYLQMNSLKPEDTAVYYCAHDLFGGPLGYWDYDYWGQGTQVTVSS	low polyreactivity
QVQLVESGGGLVQAGGSLRLSCAASGSISDSYAMGWYRPAPGKERELVAAITSGDSTYYADSVKGRFTISRDNAKNTVYLQMNSLKPEDTAVYYCAKRVSRVRGYGFTDWSEYDYWGQGTQVTVSS	low polyreactivity
QVQLVESGGGLVQAGGSLRLSCAASGSIFRFYAMGWYRQAPGKERELVADISWRGGSTYYADSVTGRFTISRDNAKNTVYLQMNSLKPEDTAVYYCAADGPGKYDYWGQGTQVTVSS	high polyreactivity
QVQLVESGGGLVQAGGSLRLSCAASGLTFGDYTMGWYRQAPGKERELVAAITWSGASTYYADSVKGRFTISRDNAKNTVYLQMHSLKPEDTAVYYCAAERTPSYRAYDYWGQGTKVTVSS	low polyreactivity

Sequence	polyreactivity (PSR sort gate)
QVQLVESGGGLVQAGGSLRLSCAASGFTFVKYAMGWYRQAPGKVRELVASISSGGSTYYADSVKGRFTISRDNAKNTVYLQMNSLKPEDTAVYYCNKSPGYGRYSRRYDSWGQGTQVTVSS	high polyreactivity
QVQLVESGGGLVQARGSLRLSCAASGLTFASYAMGWYRQEPGKERELVARISRSGGSTYYADSVKGRFTISRDNAKNTVYFHMNSLKPEDTAVYYCAADYIFRRYPGGGIYDYDYWGQGTQVTVSS	high polyreactivity
QVQLVESGGGLVQAGGSLRLSCAASGRTFSKYAMGWYRQAPGKERELVAAISKRGGSTSYADSVKGRFTISRDNAKNTVYLQMNSLKPEDTAVYYCAADGNRNYLYWPYGYWGQGTQVTVSS	high polyreactivity
QVQLVESGGGLVQAGGSLRLSCAASGLTFGRYAMGWYRQAPGKERELVAAITWIGDGTYYGDSVKGRFTISRDNAKKTVYLQMNSLTPEDTAVYYCAAVYYTYLYGRYNYWGQGTQVTVSS	low polyreactivity
QVQLVESGGGLVQAGGSLRLSCAASGSTFVRYVMGWYRQAPGKERELVAAISRRGGSTYYADSVKGRFTISRDHAKNTVYLQMNSLKPEDTAVYYCARTVGYRTLLESDSWGQGTQVTVSS	high polyreactivity
QVQLVESGGGLVQAGGSLRLSCAASGRIFKQYALGWYRQAPGKERELVAAISVRGGITYYADSVKGRFTISRDNAKNTVYLQMNSLKPEDTAVYYCAKRSYRTHTYDYWGQGTQVTVSS	low polyreactivity
QVQLVESGGGLVQAGGSLRLSCAASGRISSYYAMGWYRQAPGKDREFVARIRWSGGSTYYADSVKGRFTISRDNAKNTVYLQMNSLKPEDTAVYYCAAVPYAYGYTYDYWGQGTQVTVSS	high polyreactivity
QVQLVESGGGLVQAGGSLRLSCAASGYTFTINAMGWYRQAPGKERELVAAISWNGGRTYYADAVKGRFTISRDNAKNTVYLQMNSLKPEDTAVCYCNADTYAAGDYWGQGTQVTVSS	high polyreactivity
QVQLVESGGGLVQAGGSLRLSCAASGIISYLNAMGWYRQAPGKERELVAAITGGGRTNYADSVKGRFTFSRDNAKNTVYLQMNSLKPEDTAVYYCNAYSSNYRYWARRGRPYNYWGQGTQVTVSS	high polyreactivity
QVQLVESGGGLVQAGGSLRLSCAASGSTFDGNAMGWYRQAPGKERELVAAITWRDGSTSYADSVKGRFTISRDNAKNTVYLQMNSLKPEDTAVYYCAADYEVYQVASAFDYWGQGTQVTVSS	low polyreactivity
QVQLVESGGGLVQAGGSLRLSCAGSGSIFGRYVVGWYRLAPGKEREFVAAITYSGSSTYYADSVKWRFTISRDNAKNTVYVQINSLKPEDTAVYYCNTYPRSYYWMGYWGQGTQVTVSS	high polyreactivity
QVQLVESGGGLVQAGGSLRISCAASGLYAMGWYRQAPGKERELVADINSSGGSITNYADSVKGRFTISRDNAKNTVYLQMNSLKPEDTAVYYCNPDVPGDTGWWGFDYWGQGTQVTVSS	low polyreactivity
QVQLVESGGGLVQAGGSLRLSCAASGRTLSFYTMGWYRQAPGKERELVAAISSRTGSTYYADSVKGRFTISRDNAKNTVYLQMNRLKPEDTAVYYCAAASRAFAGSGHYYWGQGTQVTVSS	high polyreactivity
QGQLGESGGGLVQAGGSLRLTCAASGNIFFVYAMGWYRQAPGNEWELVAAITWGGGSTNYADSVKGRFTISRDNAKKTVYLQMNSLKPEDTAVYYCATDNRYVVDSYYWGQGTQVTVSS	high polyreactivity
QVQLVDSAAGLVQARRSLRLSCAASGRTFPLNVMGWYRLAPGKEREFVAAIRWNGGSTYYADSVKGRFTISRDHAKNTVYLQLNCLIPEDTSVYYCAAQLFRRGRYAGNPMDYWGQGTQVTVSS	high polyreactivity
QVQLVESGGGLVQAGGSLRLSCAASGFTFSVYVIGWYRQAPGKERELVAAISSGGDTTYADSVKGRFTISRDNAKNTVYLQMNSLKPEDTAVYYCADYRVILYYLYDYWGQGTQVTVSS	low polyreactivity
QLQLVESGGGLVQAGGSLRLSCGASGFTFYVYAMGWSRQAPGKERELVAAISKSGGSTYYADSVKGRFTISRDHATNTVDLQMTSLKPEDTAVYSCAVFDNRSGYRGGHRYNSWGQATQVTVSS	high polyreactivity
QVQLVESGGRLVQAGGSLRLSCAASGFTFGHYAMGWSRPARGKEWELVAAIRWSGGSTYYADSVKGRFTISRDNAKNTVYLQMNSLKPEDTAVYYCAARRFDGFEYDYWGDGTQVTVSS	low polyreactivity
QVQLVESGGGLVQAGGSLRLSCAASGSIFDPYAMGWYRQAPGKERELVAGISFSGGRTYYADSVKGRFTISRDNAKNTVYLQMNSLKPEDTAVYYCNKLLTQGAYPYYYWGQGTQVTVSS	high polyreactivity
QVQLVESGGGLVQAGGSLRLSCAASGSIFGYYAMGWYRQAPGKERELVAAITSGGNTYYADSVKGRFTISRDNAKNTVYLQMNSLKPEDTAVSYCAAEFWYTYPYLVDYWGQGTQVTVSS	low polyreactivity
QVQLVESGGGLVQAGGSLRLSCAASGRIFQRNAMGWYRLAPGKERELVAAITSTGVRTYYADSVKGRFTISRDNAKNTVYLQLNSLKPEDTAVYYCAVRGERRYIYDYWGQGTQVTVSS	high polyreactivity
